The target in this assay is human OT7T175 (metastin receptor) (human) (UniProt Q969F8). Nature of the assay: cell-based or functional assay.

Numbered stars: 1 amine (or outer) side, 2 acyl side, 3 side chain; on linkers, the order of the positions; unused ones are H or OH. Square brackets hold non-standard residues; d marks the D form. Phe(3R-OH) = O=C([C@@H](N[*:1])[C@H](O[*:3])c1ccccc1)[*:2]; Phe(3-Me) = Cc1cccc(C[C@H](N)C(=O)O)c1; Phe(4-Me) = Cc1ccc(C[C@H](N)C(=O)O)cc1; Phe(2-Me) = Cc1ccccc1C[C@H](N)C(=O)O; Arg(Me) = CNC(=N)NCCC[C@H](N)C(=O)O; Hyp = O=C(O)[C@@H]1C[C@@H](O)CN1; αMeF = C[C@](N)(Cc1ccccc1)C(=O)O; azaGly = NNC(=O)O

human OT7T175 (metastin receptor) (human), sequence (Q969F8 whole entry L364H): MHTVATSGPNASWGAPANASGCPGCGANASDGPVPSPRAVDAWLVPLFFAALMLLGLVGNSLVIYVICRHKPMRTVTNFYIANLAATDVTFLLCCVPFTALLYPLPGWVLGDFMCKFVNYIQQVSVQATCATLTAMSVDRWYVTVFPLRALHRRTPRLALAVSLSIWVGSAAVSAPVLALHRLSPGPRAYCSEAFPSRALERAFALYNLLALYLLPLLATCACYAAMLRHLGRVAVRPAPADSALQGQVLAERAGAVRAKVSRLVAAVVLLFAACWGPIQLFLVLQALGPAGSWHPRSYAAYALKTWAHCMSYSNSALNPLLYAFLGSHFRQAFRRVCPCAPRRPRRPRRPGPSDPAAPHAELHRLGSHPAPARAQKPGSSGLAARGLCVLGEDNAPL

B1: des(1)-Ac-[D-Tyr2,Hyp3,Thr5,Phe(4Me)6,AzaGly7,Arg(Me)9,Trp10]MS10 (peptide)
peptide: Ac-[dY][Hyp]NT[Phe(4-Me)][azaGly]L[Arg(Me)]W-NH2
SMILES: CNC(=N)NCCC[C@H](NC(=O)[C@H](CC(C)C)NC(=O)NNC(=O)[C@H](Cc1ccc(C)cc1)NC(=O)[C@@H](NC(=O)[C@H](CC(N)=O)NC(=O)[C@@H]1C[C@@H](O)CN1C(=O)[C@@H](Cc1ccc(O)cc1)NC(C)=O)[C@@H](C)O)C(=O)N[C@@H](Cc1c[nH]c2ccccc12)C(N)=O
Take B1: the intracellular Ca ion level-increasing activity [specific activity to Metastin (1-54)] (relative to Metastin (1-54)) came out at 0.8.

B2: des(1)-Ac-[D-Tyr2,Hyp3,Thr5,Phe(3Me)6,AzaGly7,Arg(Me)9,Trp10]MS10 (peptide)
peptide: Ac-[dY][Hyp]NT[Phe(3-Me)][azaGly]L[Arg(Me)]W-NH2
SMILES: CNC(=N)NCCC[C@H](NC(=O)[C@H](CC(C)C)NC(=O)NNC(=O)[C@H](Cc1cccc(C)c1)NC(=O)[C@@H](NC(=O)[C@H](CC(N)=O)NC(=O)[C@@H]1C[C@@H](O)CN1C(=O)[C@@H](Cc1ccc(O)cc1)NC(C)=O)[C@@H](C)O)C(=O)N[C@@H](Cc1c[nH]c2ccccc12)C(N)=O
In the case of B2, the intracellular Ca ion level-increasing activity [specific activity to Metastin (1-54)] (relative to Metastin (1-54)) was determined as 0.7.

B3: des(1)-Ac-[D-Tyr2,Hyp3,Thr5,αMePhe6,AzaGly7,Arg(Me)9,Trp10]MS10 (peptide)
peptide: Ac-[dY][Hyp]NT[αMeF][azaGly]L[Arg(Me)]W-NH2
SMILES: CNC(=N)NCCC[C@H](NC(=O)[C@H](CC(C)C)NC(=O)NNC(=O)[C@](C)(Cc1ccccc1)NC(=O)[C@@H](NC(=O)[C@H](CC(N)=O)NC(=O)[C@@H]1C[C@@H](O)CN1C(=O)[C@@H](Cc1ccc(O)cc1)NC(C)=O)[C@@H](C)O)C(=O)N[C@@H](Cc1c[nH]c2ccccc12)C(N)=O
Molecule B3 had an intracellular Ca ion level-increasing activity [specific activity to Metastin (1-54)] (relative to Metastin (1-54)) of 1.4.

B4: des(1)-Ac-[D-Tyr2,Hyp3,Thr5,threo-Ser(3Phenyl)6,AzaGly7,Arg(Me)9,Trp10]MS10 (peptide)
peptide: Ac-[dY][Hyp]NT[Phe(3R-OH)][azaGly]L[Arg(Me)]W-NH2
SMILES: CNC(=N)NCCC[C@H](NC(=O)[C@H](CC(C)C)NC(=O)NNC(=O)[C@@H](NC(=O)[C@@H](NC(=O)[C@H](CC(N)=O)NC(=O)[C@@H]1C[C@@H](O)CN1C(=O)[C@@H](Cc1ccc(O)cc1)NC(C)=O)[C@@H](C)O)[C@H](O)c1ccccc1)C(=O)N[C@@H](Cc1c[nH]c2ccccc12)C(N)=O
B4 showed an intracellular Ca ion level-increasing activity [specific activity to Metastin (1-54)] (relative to Metastin (1-54)) of 1.

B5: des(1)-Ac-[D-Tyr2,Hyp3,Thr5,Phe(2Me)6,AzaGly7,Arg(Me)9,Trp10]MS10 (peptide)
peptide: Ac-[dY][Hyp]NT[Phe(2-Me)][azaGly]L[Arg(Me)]W-NH2
SMILES: CNC(=N)NCCC[C@H](NC(=O)[C@H](CC(C)C)NC(=O)NNC(=O)[C@H](Cc1ccccc1C)NC(=O)[C@@H](NC(=O)[C@H](CC(N)=O)NC(=O)[C@@H]1C[C@@H](O)CN1C(=O)[C@@H](Cc1ccc(O)cc1)NC(C)=O)[C@@H](C)O)C(=O)N[C@@H](Cc1c[nH]c2ccccc12)C(N)=O
With B5, the intracellular Ca ion level-increasing activity [specific activity to Metastin (1-54)] (relative to Metastin (1-54)) amounted to 0.6.
